Legend:
[1] = biological target: glucagon-like peptide-1 receptor (GLP-1R); experiment: cell-based or functional assay
glucagon receptor (GCGR) = experiment: cell-based or functional assay

| % EC50 compare to KPI (GLP1), with HSA added (KPI + HSA) [1] | EC50 (nM) GLP-1R, GLP-1 activity in vitro [1] | EC50 (nM), GLP-1 activity [1] | EC50 [nM] GLP1, CBA potency assay [1] | EC50 [nM] GLP1, CBA potency assay, with HSA added (KPI + HSA) [1] | EC50 [nM] GLP1, CBA potency assay, without HSA [1] | % EC50 compare to KPI (GCGR), with HSA added (KPI + HSA) (glucagon receptor (GCGR)) | EC50 (nM) GCGR, glucagon activity in vitro (glucagon receptor (GCGR)) | EC50 [nM] GCGR, CBA potency assay (glucagon receptor (GCGR)) | EC50 [nM] GCGR, CBA potency assay, with HSA added (KPI + HSA) (glucagon receptor (GCGR)) | EC50 [nM] GCGR, CBA potency assay, without HSA (glucagon receptor (GCGR)) | Substance |
| --- | --- | --- | --- | --- | --- | --- | --- | --- | --- | --- | --- |
| 107% | 0.0168 nM | 0.105 nM | 0.127 nM | 0.187 nM | 0.201 nM | 129% | 0.0731 nM | 0.6 nM | 1.06 nM | 1.37 nM | OPK-88003 KPI (SEQ ID NO: 3 where Xaa38=Cys and Xaa39=Cys) (peptide) |
| – | – | 0.9 nM | – | – | – | – | – | – | – | – | Tirzepatide (Mounjaro, Zepbound) (peptide) |
